Reference: article PMC2850172

Substrate: O=c1ccn([C@@H]2O[C@H](COP(=O)(O)OP(=O)(O)O[C@H]3OC[C@@H](O)[C@H](O)[C@H]3O)[C@@H](O)[C@H]2O)c(=O)[nH]1
Test: cells, lysate or membranes
Settings: Pichia-expressed; conditions not stated

B1: Pichia-expressed form of XT-I (Homo sapiens) (protein)
chain: PKCDISGKEAISALSRAKSKHCRQEIGETYCRHKLGLLMPEKVTRFCPLEGKANKNVQWDEDSVEYMPANPVRIAFVLVVHGRASRQLQRMFKAIYHKDHFYYIHVDKRSNYLHRQVLQVSRQYSNVRVTPWRMATIWGGASLLSTYLQSMRDLLEMTDWPWDFFINLSAADYPIRTNDQLVAFLSRYRDMNFLKSHGRDNARFIRKQGLDRLFLECDAHMWRLGDRRIPEGIAVDGGSDWFLLNRRFVEYVTFSTDDLVTKMKQFYSYTLLPAESFFHTVLENSPHCDTMVDNNLRITNWNRKLGCKCQYKHIVDWCGCSPNDFKPQDFHRFQQTARPTFFARKFEAVVNQEIIGQLDYYLYGNYPAGTPGLRSYWENVYDEPDGIHSLSDVTLTLYHSFARLGLRRAETSLHTDGENSCRYYPMGHPASVHLYFLADRFQGFLIKHHATNLAVSKLETLETWVMPKKVFKIASPPSDFGRLQFSEVGTDWDAKERLFRNFGGLLGPMDEPVGMQKWGKGPNVTVTVIWVDPVNVIAATYDILIESTAEFTHYKPPLNLPLRPGVWTVKILHHWVPVAETKFLVAPLTFSNRQPIKPEEALKLHNGPLRNAYMEQSFQSLNPVLSLPINPAQVEQARRNAASTGTALEGWLDSLVGGMWTAMDICATGPTACPVMQTCSQTAWSSFSPDPKSELGAVKPDGRLR
  Km: 300 µM
